The target in test [1] is T1, Human BTC-avitag-biotin (human, UniProt P35070 32-111, biotin on the avitag).
T1 construct: also called biotin-BTC; soluble human BTC-avitag-biotin
T1 sequence: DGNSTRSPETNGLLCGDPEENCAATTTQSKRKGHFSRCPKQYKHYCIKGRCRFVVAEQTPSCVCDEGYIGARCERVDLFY
The test can be described thus: flow cytometry: inhibition of biotin-BTC binding to HKB11 cells over-expressing ErbB1; y axis Fluorescent Intensity. The procedure: (§1) In order to assess potency of the Fabs and bispecific in neutralizing binding of BTC to its receptor Erb 1 or ErbB4, the following assay was performed. HKB11 over-expressing either ErbB1 or ErbB4 cells were plated 1×10⁵ cells/well. Cells were washed once with FACS buffer by spun down at 1200 rpm for 5 minutes and supernatant removed. Next, the Fab sample dilutions and BTC were prepared in FACS buffer. Human BTC-avitag-biotin was diluted to a fixed concentration of 15 nM. The test Fab samples were prepared at a starting concentration of 40 nM and titrated for 9 points at a serial dilution of 1:2. Both biotin-BTC and the test Fab samples are incubated for 30 minutes at room temperature. The pre-incubated samples were then added to the cell plate at 100 μl per well in duplicate and incubated for 1 hour on ice. The plate was then washed once in FACS buffer and spun down at 1200 rpm for 5 minutes and supernatant removed. After suspending the cell pellet with 100 μl/well of diluted secondary antibody streptavidin-Alexa Fluor488 (1:2000) in FACS buffer, the cells were then incubated for 60 min on ice. The cells were washed once with FACS buffer and re-suspended in 120 μl of FACS buffer for flow cytometric analysis.
(§2) Measurements were performed on Attune Flow Cytometry machine. Data were analysed using the Flow Jo software. The live cell populations analysed were gated in forward and side scattering (FSC-A/SSC-A dot plot). The interval gate was established on the control histogram, which was obtained with sample incubated in streptavidin-Alexa Fluor488 only, and subsequently, determined percent of positive binding events of cells carrying membrane-bound receptor ErbB1 or ErbB4 and biotin-BTC. The median of fluorescence intensity (MFI) value was also derived for the live cell population. MFI values were then used to calculate for percent inhibition of test sample and subsequently plotted in GraphPad Prism 7.03 using nonlinear regression (curve fit) model to generate IC50 value.

The target of test [2] is T1, Human BTC-avitag-biotin. The test can be described thus: flow cytometry: inhibition of biotin-BTC binding to HKB11 cells over-expressing ErbB4; y axis Fluorescent Intensity. As to the method: as §1, §2
For orientation: Flow cytometry measures light scatter and fluorescence of single cells or particles in a stream.

Test [3] has as its target T2, Human VEGF165 (human, UniProt P15692 27-191).
T2 construct: mature; biotinylated in the VEGFR2 ELISAs; also called human VEGF-A; VEGF-A
The test can be described thus: competition ELISA: antibody pre-incubated with 400 pM VEGF-biotin, added to coated VEGFR2, streptavidin-HRP detection; y axis OD. As to the method:
(§3) The plates were then washed 3 times using 1λTBST. The plates were blocked in 2% BSA diluent (0.1% Tween 20/0.1% TirtonX100) overnight. After blocking, the plates were washed 3 times using TB ST and then the sample mixture was added at 20 μl/well. The sample mixture consisted a final fixed concentration of VEGF-biotin (in-house) at 400 pM and a 15 point 1:2 serial dilution of the antibody starting at 20 nM. The sample mixture was pre-incubated for 1 hour prior to adding to the plate and then incubated for another hour at room temperature on the plate. Afterwards, the plate was washed 3 times using TBST and 20 μl/well of Streptavidin-HRP diluted at 1:5000 was added for an incubation time of 1 hour. The plates were washed 3 times in TBST and then 20 μl/well of TMB substrate was added. TMB is a chromogen that yields a blue color when oxidized. TMB was incubated for 10 minutes until the signal saturated in the no antibody samples, and then 10 μl/well of 2N sulfuric acid was added which then changes the blue color to yellow and this now has a maximum absorbance at 450 nm.
(ELISA stands for enzyme-linked immunosorbent assay.)

The target in the next test is T3, Human BTC (human, UniProt P35070 32-111).
T3 construct: Soluble human BTC of the Biacore, ELISA, MSD and cell assays; also called human betacellulin; soluble human BTC
T3 sequence: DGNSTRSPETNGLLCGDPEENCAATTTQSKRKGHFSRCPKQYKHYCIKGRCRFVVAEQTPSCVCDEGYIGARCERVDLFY
The test can be described thus: SPR Biacore T200, anti-Fab capture, antigen as analyte.

For test [4], the target named is T2, Human VEGF165. Described as above.
Test [5] concerns the target T4, membrane-bound human BTC on 293F-hBTC cells (human, UniProt P35070 32-111).
T4 construct: the transfected construct is not described; also called membrane-anchored BTC
T4 sequence: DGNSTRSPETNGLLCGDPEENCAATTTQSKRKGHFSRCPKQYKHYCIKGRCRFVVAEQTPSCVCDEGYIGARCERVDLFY
The test can be described thus: flow cytometry on 293F cells with membrane-bound human BTC; y axis % Pos Binding. The procedure: After washing the cells, the cells were dissociated using Versene at 37° C. The cells were washed with FACS buffer and plated at 100 μl in a 96 well plate using cells at 1×10⁶ cells/ml. Then 100 μl of a serial dilution of antibodies starting at 50 nM was used. The cells were incubated, washed and then treated with the secondary anti-human Fab-FITC antibody. The antibodies only bound to the cells expressing BTC. After which the cells were washed and analyzed on the Attune Flow Cytometry. All data analysis was carried out using Flow Jo software.
In FIG. 6A, Flow cytometry was used to assess the binding of NVS11 to membrane-bound BTC using an anti-human Fab antibody for detection.

Test [6] addresses T2, Human VEGF165. The test can be described thus: competition ELISA: antibody pre-incubated with 400 pM VEGF-biotin, added to coated VEGFR2, streptavidin-HRP detection; y axis OD. As to the method: as §3
This is another data set of the same source.

Read-outs that look alike come from different tables or passages of the source.

T2 sequence (P15692 other isoform, or with tags, fused parts or gaps): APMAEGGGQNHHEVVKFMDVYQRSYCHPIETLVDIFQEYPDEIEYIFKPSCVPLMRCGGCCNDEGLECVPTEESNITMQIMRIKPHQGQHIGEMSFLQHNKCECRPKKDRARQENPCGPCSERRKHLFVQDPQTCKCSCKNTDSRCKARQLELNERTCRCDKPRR

B1: NVS14 (bispecific antibody)
heavy: QVQLLESGGGLVQPGGSLRLSCAASGFTFSRYWISWVRQAPGKGLEWVSYIDSTGTFINYADSVKGRFTISRDNSKNTLYLQMNSLRAEDTAVYYCARGGSLFDYWGQGTLVTVSSASTKGPSVFPLAPSSKSTSGGTAALGCLVKDYFPEPVTVSWNSGALTSGVHTFPAVLQSSGLYSLSSVVTVPSSSLGTQTYICNVNHKPSNTKVDKRVEPKSCGSGGGGSGGGGSGGGEVQLVESGGGLVQPGGSLRLSCTASGFSLTDYYYMTWVRQAPGKGLEWVGFIDPDDDPYYATWAKGRFTISRDNSKNTLYLQMNSLRAEDTAVYYCAGGDHNSGWGLDIWGQGTLVTVSSASTKGPSVFPLAPSSKSTSGGTAALGCLVKDYFPEPVTVSWNSGALTSGVHTFPAVLQSSGLYSLSSVVTVPSSSLGTQTYICNVNHKPSNTKVDKRVEPKSC
light: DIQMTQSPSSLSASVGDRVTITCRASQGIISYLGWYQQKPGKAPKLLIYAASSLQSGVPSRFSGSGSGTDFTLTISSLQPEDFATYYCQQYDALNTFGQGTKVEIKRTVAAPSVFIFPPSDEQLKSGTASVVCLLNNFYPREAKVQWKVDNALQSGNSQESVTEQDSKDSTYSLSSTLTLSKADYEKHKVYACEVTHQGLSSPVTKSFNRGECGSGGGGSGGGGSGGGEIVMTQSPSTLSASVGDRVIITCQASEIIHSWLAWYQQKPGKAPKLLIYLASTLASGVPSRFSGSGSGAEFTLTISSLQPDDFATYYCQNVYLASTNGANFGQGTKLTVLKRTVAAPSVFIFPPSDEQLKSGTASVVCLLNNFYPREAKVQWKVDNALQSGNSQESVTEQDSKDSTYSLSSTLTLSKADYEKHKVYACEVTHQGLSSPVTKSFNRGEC
notes: Fab-Fab: NVS4 Fab, (GSGGG)3 linker, NVS8 Fab; also called anti-BTC/anti-VEGF bispecific Fab; bispecific Fab-Fab
Consider B1, for which the results for the IC50 with Human BTC-avitag-biotin [1], with Human BTC-avitag-biotin [2] and with Human VEGF165 [3] were 2.17 nM, 2.32 nM and 1.33 nM, respectively. In addition, the Kd (usually the equilibrium constant for the complex coming apart) was 0.002 nM with Human BTC and 0.016 nM in the test with Human VEGF165 [4].

B2: NVS13 (bispecific antibody)
heavy: QVQLLESGGGLVQPGGSLRLSCAASGFTFSSYAMSWVRQAPGKGLEWVSGLGHVGYTTYTDSVKGRFTISRDNSKNTLYLQMNSLRAEDTAVYYCARDYLDFGYYFDVWGQGTLVTVSSASTKGPSVFPLAPSSKSTSGGTAALGCLVKDYFPEPVTVSWNSGALTSGVHTFPAVLQSSGLYSLSSVVTVPSSSLGTQTYICNVNHKPSNTKVDKRVEPKSCGSGGGGSGGGGSGGGEVQLVESGGGLVQPGGSLRLSCTASGFSLTDYYYMTWVRQAPGKGLEWVGFIDPDDDPYYATWAKGRFTISRDNSKNTLYLQMNSLRAEDTAVYYCAGGDHNSGWGLDIWGQGTLVTVSSASTKGPSVFPLAPSSKSTSGGTAALGCLVKDYFPEPVTVSWNSGALTSGVHTFPAVLQSSGLYSLSSVVTVPSSSLGTQTYICNVNHKPSNTKVDKRVEPKSC
light: SYELTQPLSVSVALGQTARITCSGDKIGKKYVHWYQQKPGQAPVLVIYDDSDRPSGIPERFSGSNSGNTATLTISRAQAGDEADYYCQAWDMQSVVFGGGTKLTVLGQPKAAPSVTLFPPSSEELQANKATLVCLISDFYPGAVTVAWKADSSPVKAGVETTTPSKQSNNKYAASSYLSLTPEQWKSHRSYSCQVTHEGSTVEKTVAPTECSGSGGGGSGGGGSGGGEIVMTQSPSTLSASVGDRVIITCQASEIIHSWLAWYQQKPGKAPKLLIYLASTLASGVPSRFSGSGSGAEFTLTISSLQPDDFATYYCQNVYLASTNGANFGQGTKLTVLKRTVAAPSVFIFPPSDEQLKSGTASVVCLLNNFYPREAKVQWKVDNALQSGNSQESVTEQDSKDSTYSLSSTLTLSKADYEKHKVYACEVTHQGLSSPVTKSFNRGEC
notes: Fab-Fab: NVS3 Fab, (GSGGG)3 linker, NVS8 Fab; also called anti-BTC/anti-VEGF bispecific Fab; bispecific Fab-Fab
As for B2, the IC50 (in general, the concentration at which inhibition is half-maximal) with Human BTC-avitag-biotin [1] is 1.82 nM; with Human BTC-avitag-biotin [2], 2.12 nM. Moreover, the EC50 (usually the midpoint of the concentration-response curve) in test [5] came to 0.194 nM. Also, the Kd with Human BTC amounted to 0.0018 nM; in the test with Human VEGF165 [4] it was 0.0065 nM.

B3: NVS12 (bispecific antibody)
heavy: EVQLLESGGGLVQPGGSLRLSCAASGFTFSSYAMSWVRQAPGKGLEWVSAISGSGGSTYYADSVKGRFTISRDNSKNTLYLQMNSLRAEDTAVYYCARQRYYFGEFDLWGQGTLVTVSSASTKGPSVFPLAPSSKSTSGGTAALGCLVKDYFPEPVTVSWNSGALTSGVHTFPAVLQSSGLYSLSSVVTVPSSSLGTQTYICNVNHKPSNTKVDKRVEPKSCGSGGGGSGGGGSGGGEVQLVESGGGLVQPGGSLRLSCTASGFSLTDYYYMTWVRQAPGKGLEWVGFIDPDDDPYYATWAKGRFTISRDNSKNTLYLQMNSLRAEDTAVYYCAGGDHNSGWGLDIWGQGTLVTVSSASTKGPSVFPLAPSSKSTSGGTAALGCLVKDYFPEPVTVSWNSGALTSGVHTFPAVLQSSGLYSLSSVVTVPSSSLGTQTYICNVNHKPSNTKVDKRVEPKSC
light: SYELTQPPSVSVSPGQTASITCSGDKLGDKYAYWYQQKPGQSPVLVIYQDSKRPSGIPERFSGSNSGNTATLTISGTQAEDEADYYCQAFDYLYSLGVFGGGTKLTVLGQPKAAPSVTLFPPSSEELQANKATLVCLISDFYPGAVTVAWKADSSPVKAGVETTTPSKQSNNKYAASSYLSLTPEQWKSHRSYSCQVTHEGSTVEKTVAPTECSGSGGGGSGGGGSGGGEIVMTQSPSTLSASVGDRVIITCQASEIIHSWLAWYQQKPGKAPKLLIYLASTLASGVPSRFSGSGSGAEFTLTISSLQPDDFATYYCQNVYLASTNGANFGQGTKLTVLKRTVAAPSVFIFPPSDEQLKSGTASVVCLLNNFYPREAKVQWKVDNALQSGNSQESVTEQDSKDSTYSLSSTLTLSKADYEKHKVYACEVTHQGLSSPVTKSFNRGEC
notes: Fab-Fab: NVS2 Fab, (GSGGG)3 linker, NVS8 Fab; also called anti-BTC/anti-VEGF bispecific Fab; bispecific Fab-Fab
For the molecule B3, the results for the IC50 with Human VEGF165 [6], with Human BTC-avitag-biotin [1] and with Human BTC-avitag-biotin [2] were 1.2 nM, 1.6 nM and 2.19 nM, respectively. In addition, in test [5], the EC50 came to 0.137 nM. Also, the results for the Kd in the test with Human BTC and in the test with Human VEGF165 [4] were 0.006 nM and 0.017 nM, respectively.
